In article PMC9503459, “Antifungal Activity, Structural Stability, and Immunomodulatory Effects on Human Immune Cells of Defensin from the Lentil Lens culinaris” (Membranes, 2022):
No end group written: not given here.

B1: α-casein: model protein substrate bovine α-casein (protein, UniProt P02662 16-214, looked up)
Alpha-S1-casein: RPKHPIKHQGLPQEVLNENLLRFFVAPFPEVFGKEKVNELSKDIGSESTEDQAMEDIKQMEAESISSSEEIVPNSVEQKHIQKEDVPSERYLGYLEQLLRLKKYKVPQLEIVPNSAEERLHSMKEGIHAQQKEPMIGVNQELAYFYPELFRQFYQLDAYPSGAWYYVPLGTQYTDAPSFSDIPNPIGSENSEKTTMPLW

Experiments:
[1] = tested on: proteolytic enzymes of Candida albicans; test: Sensitivity to proteolytic enzymes of Candida albicans (cell lysate, SDS-PAGE); assay type: in vitro ADME; settings: for stability to proteolysis by yeast: up to 72 h
Description: (§1) For study of Lc-def sensitivity to the clinical isolate of C. albicans, lysates of yeast cells in different concentration and pH were used basically as previously described for rhesus macaque θ-defensin 1 [22]. Cells were inoculated onto modified YPD medium and grown at 37 ℃ for 48 h before reaching the stationary phase of growth. Cells were harvested by centrifugation, washed two times in sterile phosphate buffered saline (PBS), pH 7.2, or sterile 40 mM sodium acetate, pH 4.0, and resuspended in the corresponding buffer to final concentrations of 1 × 10^9 cells/mL or 1 × 10^3 cells/mL. Two freeze-thaw cycles in liquid nitrogen were used for cell disruption, and supernatants were collected following centrifugation. Supernatants (12.5 μL) were mixed with water solutions (37.5 μL) of Lc-def, α-casein, Psd1, or LL-37 in concentration of 0.67 mg/mL and incubated at 37 ℃ for 72 or 24 h in the case of high or low cell concentration, respectively. To study the possible influence of Lc-def and Psd1 on the degradation process, supernatants (12.5 μL) were mixed with both α-casein or LL-37 in concentration of 1 mg/mL (25 μL) and Lc-def or Psd1 in concentration of 2 mg/mL (12.5 μL). As negative controls, α-casein and peptides were mixed with buffers as well as supernatants were mixed with water without the proteins. The samples were mixed with sample buffer without β-mercaptoethanol (BME), heated at 100 ℃ for 2 min, and analyzed by sodium dodecyl sulfate polyacrylamide gel electrophoresis (SDS-PAGE). Some independent experiments were performed in each case.

[2] = CD spectroscopy, secondary structure at different pH and temperature; assay type: physicochemical; settings: far-UV CD, 30 µM, 10 mM phosphate buffer pH 7.4
Description: Circular dichroism spectra were recorded at different temperatures using a J-810 spectropolarimeter (Jasco, Hachioji, Tokyo, Japan) in a 0.1 cm path length quartz cell (Hellma GmbH and Co. KG, Mullheim, Germany) in the 190–250 nm range 0.2 using solutions of Lc-def in 10 mM phosphate buffer, pH 7.4, or 150 mM sodium chloride, pH 2.5, simulated gastric fluid, at a concentration of 30 µM. Lysolipids were added at final concentration of 1 mM.

C. albicans = settings: at 20 μM; cited from earlier work
Description: Here, we investigated an ability of Lc-def to inhibit the growth of clinical isolates of Candida albicans, C. krusei, and C. glabrata. An antifungal activity against Candida species has been shown previously for some plant defensins. For example, the pea defensin Psd1 at the concentration of 20 μM and PvD1 from the common bean at 18.4 μ ...

[3] = tested on: proteolytic enzymes of Candida albicans; test: Influence of defensins on degradation of proteins by C. albicans lysate; assay type: biochemical; settings: C. albicans lysate 10^3 cells/mL, pH 7.2, up to 24 h, SDS-PAGE
Description: as §1

[4] = tested on: pepsin, trypsin, α-chymotrypsin; test: Simulated gastrointestinal digestion in vitro; assay type: in vitro ADME, porcine pepsin and trypsin, bovine α-chymotrypsin; settings: pepsin, 0.1 M HCl pH 2.0 (data not shown)
Excerpt: Digestive enzymes (porcine pepsin and trypsin, bovine α-chymotrypsin), model protein substrate bovine α-casein, and secondary anti-rabbit IgG polyclonal goat antibodies conjugated to HRP and 3,3′,5,5′-tetramethylbenzidine (TMB) substrates were purchased from Sigma-Aldrich (St. Louis, MO, USA). Synthetic lysophospholipids (lyso-palmitoyl phosphatidylcholine (LPPC), lyso-palmitoyl phosphatidylglycerol (LPPG)) were purchased from Avanti Polar Lipids (Alabaster, AL, USA).
Sensitivity of Lc-def to digestive enzymes was examined by simulation of its gastrointestinal digestion in vitro. Gastric digestion was performed for 2 h, using 50 ng of pepsin per 1 μg of preheated at 100 °C for 30 min and intact Lc-def in 0.1 M HCl, pH 2.0. For duodenal digestion, the pH of the mixture resulting from gastric digestion was adjusted to 8.0 by addition of ammonium bicarbonate. The obtained mixture was incubated for 24 h at 37 °C with 2.5 ng of trypsin and 10 ng of α-chymotrypsin per 1 μg of the defensin. The degree of proteolysis was monitored by SDS-PAGE and RP-HPLC. Gel analysis was performed using Gel Doc XR^+ imaging system (Bio-Rad, Hercules, CA, USA) and Image Lab Software v.6.1.0 (Bio-Rad, Hercules, CA, USA). Some independent experiments were performed in each case. The experiment with α-casein was carried out for comparison.

[5] = C. albicans lysate 10^9 cells/mL, 40 mM sodium acetate pH 4.0, 37 °C, SDS-PAGE

Molecule	remaining at 24 h, 0.5 mg/mL ([1]; Candida albicans cell lysate supernatant (1 × 10^3 cells/mL), C. albicans lysate 10^3 cells/mL, pH 7.2, 37 °C, 24 h, densitometric gel analysis, read-out: intact peptide present in the hydrolysate)	stability to proteolysis by yeast [1, 5]	stability to proteolysis by yeast ([1]; C. albicans lysate 10^9 cells/mL, PBS pH 7.2, 37 °C, SDS-PAGE, densitometry, immunoblotting)	Random, % [2]	α-Helix, % [2]	β-Sheet, % [2]	β-Turn, % [2]	growth inhibition of C. albicans (C. albicans)	influence on the rate of α-casein degradation [3]	time after which the protein band was absent ([1]; C. albicans lysate 10^3 cells/mL, pH 7.2, 37 °C, SDS-PAGE)	time to complete degradation ([1]; C. albicans lysate 10^9 cells/mL, pH 7.2, 37 °C, SDS-PAGE)	time to almost complete degradation by pepsin [4]
CC[C@H](C)[C@H](NC(=O)[C@H](CCCCN)NC(=O)[C@H](CCC(=O)O)NC(=O)[C@H](CCCCN)NC(=O)[C@H](CO)NC(=O)[C@H](CCCCN)NC(=O)[C@H](CCCNC(=N)N)NC(=O)[C@H](Cc1ccccc1)NC(=O)[C@H](Cc1ccccc1)NC(=O)[C@H](CC(=O)O)NC(=O)CNC(=O)[C@H](CC(C)C)NC(=O)[C@@H](N)CC(C)C)C(=O)NCC(=O)N[C@@H](CCCCN)C(=O)N[C@@H](CCC(=O)O)C(=O)N[C@@H](Cc1ccccc1)C(=O)N[C@@H](CCCCN)C(=O)N[C@@H](CCCNC(=N)N)C(=O)N[C@H](C(=O)N[C@H](C(=O)N[C@@H](CCC(N)=O)C(=O)N[C@@H](CCCNC(=N)N)C(=O)N[C@H](C(=O)N[C@@H](CCCCN)C(=O)N[C@@H](CC(=O)O)C(=O)N[C@@H](Cc1ccccc1)C(=O)N[C@@H](CC(C)C)C(=O)N[C@@H](CCCNC(=N)N)C(=O)N[C@@H](CC(N)=O)C(=O)N[C@@H](CC(C)C)C(=O)N[C@H](C(=O)N1CCC[C@H]1C(=O)N[C@@H](CCCNC(=N)N)C(=O)N[C@H](C(=O)N[C@@H](CCC(=O)O)C(=O)N[C@@H](CO)C(=O)O)[C@@H](C)O)C(C)C)[C@@H](C)CC)C(C)C)[C@@H](C)CC [LL-37, reference compound]	~30%											
Psd1: pea Pisum sativum defensin (UNIPROT P81929), recombinant (KTCEHLADTYRGVCFTNASCDDHCKNKAHLISGTCHNWKCFCTQNC; ends and bridges not checked; cysteine pairing not given here; UniProt P81929 1-46, looked up) [reference compound]		stable	stable	30.7%	14.8%	31.8%	22.8%	100%	but not Psd1 decreased the rate of α-casein degradation			
B1		slow								≤ 8 h	≤ 2 h	≤ 5 min
